In article PMC4643876 (2015):
Where two headings read alike, the source gives them in different places. Ends that are not written are not given here. * marks the point of attachment. Biotin = O=C1N[C@H]2[C@H](CS[C@H]2CCCCC(=O)*)N1; Octanoyl = CCCCCCCC(=O)*; GABA = NCCCC(=O)O

Assays:
[1] = target: T1, GFP-tagged Plasmepsin V (PmV-GFP), P. falciparum clone DC6 (Plasmodium falciparum)
[2] = target: T1, GFP-tagged Plasmepsin V (PmV-GFP), P. …; assay: 3 uM HRPII-PExEl substrate
[3] = target: T1, GFP-tagged Plasmepsin V (PmV-GFP), P. …; assay: 3 uM HRPII-PExEl substrate; remark: listed apart in the source
[4] = target: T1, GFP-tagged Plasmepsin V (PmV-GFP), P. …; remark: listed apart in the source
[5] = target: T1, GFP-tagged Plasmepsin V (PmV-GFP), P. …; assay: 3 uM HRPII-PExEl substrate; remark: listed apart in the source

T1 sequence (Q8I6Z5 whole entry): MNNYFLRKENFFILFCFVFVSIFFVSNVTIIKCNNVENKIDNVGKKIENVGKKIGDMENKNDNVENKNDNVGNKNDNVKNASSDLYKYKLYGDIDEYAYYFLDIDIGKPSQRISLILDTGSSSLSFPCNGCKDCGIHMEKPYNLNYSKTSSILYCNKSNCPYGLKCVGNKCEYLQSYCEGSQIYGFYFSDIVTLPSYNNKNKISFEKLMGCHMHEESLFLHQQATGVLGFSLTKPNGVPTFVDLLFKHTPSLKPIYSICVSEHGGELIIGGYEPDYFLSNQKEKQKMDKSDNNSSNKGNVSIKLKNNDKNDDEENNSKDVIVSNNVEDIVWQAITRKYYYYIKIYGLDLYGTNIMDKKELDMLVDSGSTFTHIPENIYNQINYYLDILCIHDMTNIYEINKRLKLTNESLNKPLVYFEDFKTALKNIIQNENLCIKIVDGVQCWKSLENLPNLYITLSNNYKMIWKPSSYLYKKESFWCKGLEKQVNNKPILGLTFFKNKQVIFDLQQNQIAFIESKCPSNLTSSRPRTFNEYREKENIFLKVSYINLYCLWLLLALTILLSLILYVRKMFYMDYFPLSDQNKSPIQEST

Q: What does the source list for RLLYEA (not fully specified; also: HEA isostere replaces the Leu3-Tyr4 peptide bond) [Compound 7a]?
A: Ki [1]: 0.74 nM; IC50 [2]: 1.38 nM

Q: How did the IC50 [3] turn out when RLLAEA (also: hydroxyethylamino (HEA) isostere in place of peptide bond Leu3-Ala4) [Compound 1 (LG20), RL[L~A]EA] was run?
A: 0.37 nM

Q: With {Biotin-GABA-GABA}-RLLAEA (also: hydroxyethylamino (HEA) isostere in place of peptide bond Leu3-Ala4) [Compound 36, a biotinylated version of Compound 1] as the binder, how does the Ki [4] read?
A: 22.5 nM

Q: And the IC50 [5]?
A: 41.9 nM

B1: Compound 37a (octanoyl group at the N-terminus of Compound 7a) (peptide)
peptide: Octanoyl-RLLYEA
modifications: also: hydroxyethylamino (HEA) isostere in place of peptide bond Leu3-Tyr4, carbinol S
Q: How did the Ki [4] turn out when B1 was run?
A: 0.01 nM
